The record followed here is US20200024330A1.

Common to all, as to assay: cell-based or functional assay
Experiment [1] deals with HIV-1 IAVI-C18 envelope glycoprotein (Env) on pseudovirus (HIV-1).
Experiment [2] deals with HIV-1 93IN905 envelope protein (Env) on pseudotyped virus (HIV-1 isolate 93IN905).
Experiment [3] addresses HIV-1 JR-CSF envelope protein (Env) on pseudotyped virus (HIV-1 isolate JR-CSF) (UniProt P20871).
For experiment [4], the target named is HIV-1 NL43 envelope protein (Env) on pseudotyped virus (HIV-1 NL43).
For experiment [5], the target named is HIV-1 Env of isolate 93MW959 (pseudovirus) (HIV-1 isolate 93MW959, subtype C).
Experiment [6] addresses HIV-1 Env of isolate MG RM-AG-001 (HIV-1).
For experiment [7], the target named is HIV-1 Env of isolate MG RM-AG-005 (HIV-1).
The target in experiment [8] is HIV-1 Env of isolate MG RM-AG-006 (HIV-1).
The target of experiment [9] is HIV-1 Env of isolate MG RM-AG-013 (HIV-1).
Experiment [10] addresses HIV-1 JR-FL Env (pseudovirus) (HIV-1).
In experiment [11] the target is HIV-1 MGRM-AG-005 envelope glycoprotein (Env) on pseudovirus (HIV-1).
Experiment [12] concerns the target HIV-1 92UG005 Env (on pseudovirus) (HIV-1).
Experiment [13] addresses HIV-1 92UG024 Env (on pseudovirus) (HIV-1).
Experiment [14] has as its target HIV-1 93IN905 Env (on pseudovirus) (HIV-1).
In experiment [15] the target is HIV-1 94UG103 Env (on pseudovirus) (HIV-1).
For experiment [16], the target named is HIV-1 APV13 Env (on pseudovirus) (HIV-1).
The target in experiment [17] is HIV-1 CMU02 Env (on pseudovirus) (HIV-1).
The target of experiment [18] is HIV-1 JRFL Env (on pseudovirus) (HIV-1).
In experiment [19] the target is HIV-1 MGRM-D-001 Env (on pseudovirus) (HIV-1).
Experiment [20] deals with HIV-1 MGRM-D-018 Env (on pseudovirus) (HIV-1).
Experiment [21] concerns the target HIV-1 envelope glycoprotein (Env) of isolate MGRM-C-017, on pseudovirus (HIV-1).
The target in experiment [22] is HIV-1 envelope glycoprotein (Env) of isolate MGRM-C-020, on pseudovirus (HIV-1).
Experiment [23] deals with HIV-1 envelope glycoprotein (Env) of isolate MGRM-C-022, on pseudovirus (HIV-1).
In experiment [24] the target is HIV-1 envelope glycoprotein (Env) of isolate MGRM-C-023, on pseudovirus (HIV-1).
The target in experiment [25] is HIV-1 envelope glycoprotein (Env) of isolate MGRM-C-024, on pseudovirus (HIV-1).
The target in experiment [26] is HIV-1 envelope glycoprotein (Env) of isolate MGRM-C-026, on pseudovirus (HIV-1).
Experiment [27] has as its target aMLV envelope protein (on pseudovirus, negative control) (aMLV).
Experiment [28] addresses HIV-1 Env of isolate MGRM-D-026 (HIV-1).
Experiment [29] concerns the target HIV-1 Env of isolate MGRM-F1-004 (HIV-1).
Experiment [30] concerns the target HIV-1 Env of isolate MGRM-F1-006 (HIV-1).
The target of experiment [31] is HIV-1 Env of isolate MGRM-F1-010 (HIV-1).
The target of experiment [32] is HIV-1 Env of isolate MGRM-F1-012 (HIV-1).

Chain of 1443_C16 (PG16) (TCN-116) (antibody) (VH): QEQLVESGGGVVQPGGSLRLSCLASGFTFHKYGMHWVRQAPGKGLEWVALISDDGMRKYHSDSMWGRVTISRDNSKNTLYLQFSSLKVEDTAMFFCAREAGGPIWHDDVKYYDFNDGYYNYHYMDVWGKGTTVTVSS
Chain of 1443_C16 (PG16) (TCN-116) (antibody) (VL): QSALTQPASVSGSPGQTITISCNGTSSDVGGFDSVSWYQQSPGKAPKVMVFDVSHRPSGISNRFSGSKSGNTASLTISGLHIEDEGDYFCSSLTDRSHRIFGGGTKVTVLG
Chain of PGT-144 (4970_K22) (antibody) (VH): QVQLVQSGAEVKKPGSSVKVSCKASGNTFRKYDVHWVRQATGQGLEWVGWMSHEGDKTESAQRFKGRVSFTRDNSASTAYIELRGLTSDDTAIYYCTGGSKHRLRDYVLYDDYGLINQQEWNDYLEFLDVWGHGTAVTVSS
Chain of PGT-144 (4970_K22) (antibody) (VL): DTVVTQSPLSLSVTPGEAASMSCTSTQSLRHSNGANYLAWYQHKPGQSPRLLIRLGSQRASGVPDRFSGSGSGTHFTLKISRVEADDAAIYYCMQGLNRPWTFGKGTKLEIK
Chain of PGT-141 (4964_G22; 4993_K13) (antibody) (VH): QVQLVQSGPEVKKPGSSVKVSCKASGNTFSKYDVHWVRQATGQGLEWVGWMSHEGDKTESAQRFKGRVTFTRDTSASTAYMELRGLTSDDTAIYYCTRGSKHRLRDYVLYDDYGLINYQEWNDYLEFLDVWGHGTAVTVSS
Chain of PGT-141 (4964_G22; 4993_K13) (antibody) (VL): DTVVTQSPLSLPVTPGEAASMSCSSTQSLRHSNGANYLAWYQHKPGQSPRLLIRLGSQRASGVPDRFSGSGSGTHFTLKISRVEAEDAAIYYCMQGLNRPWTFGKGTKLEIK
Chain of PGT-142 (4995_E20) (antibody) (VH): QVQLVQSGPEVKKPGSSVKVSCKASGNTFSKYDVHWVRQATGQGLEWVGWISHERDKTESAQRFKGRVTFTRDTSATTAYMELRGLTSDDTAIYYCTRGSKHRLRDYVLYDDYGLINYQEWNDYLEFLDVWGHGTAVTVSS
Chain of PGT-143 (4980_N08) (antibody) (VH): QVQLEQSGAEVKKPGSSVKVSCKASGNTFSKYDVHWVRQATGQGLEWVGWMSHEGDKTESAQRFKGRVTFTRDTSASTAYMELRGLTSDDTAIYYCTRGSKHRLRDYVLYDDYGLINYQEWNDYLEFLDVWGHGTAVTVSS
Chain of PGT-143 (4980_N08) (antibody) (VL): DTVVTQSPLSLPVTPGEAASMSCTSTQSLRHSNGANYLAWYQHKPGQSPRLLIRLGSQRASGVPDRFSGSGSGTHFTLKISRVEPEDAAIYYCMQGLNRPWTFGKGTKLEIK

2G12 (antibody) gave an IC90 (pseudovirus neutralization) in experiment [1] greater than 50 µg/mL.

With 4E10 (antibody), the IC90 (pseudovirus neutralization) in [1] is greater than 50 µg/mL.

Take 1443_C16 (PG16) (TCN-116) (antibody): the IC50, pseudovirus neutralization, 1 hour Virus/Ab Incubation in experiment [2] is 0.33 µg/mL; in experiment [3] it was less than 0.0025 µg/mL; in [4] it was less than 0.0025 µg/mL. Also, the results for the IC50, pseudovirus neutralization, 18 hour Virus/Ab Incubation in experiment [2], in experiment [3] and in [4] were 0.255 µg/mL, less than 0.0025 µg/mL and 4.99 µg/mL, respectively. Besides, in experiment [1], the IC90 (pseudovirus neutralization) came to 0.207 µg/mL.

With 1495_C14 (PGC14) (antibody), the IC50, pseudovirus neutralization, 1 hour Virus/Ab Incubation in [2] is greater than 50 µg/mL; in [3] it was greater than 50 µg/mL; in experiment [4], 0.35 µg/mL. Besides, the figures for the IC50, pseudovirus neutralization, 18 hour Virus/Ab Incubation in experiment [2], in experiment [3] and in experiment [4] were 0.146 µg/mL, greater than 50 µg/mL and 0.15 µg/mL, respectively.

Regarding 4858_P08 (PGT-123) (antibody), the IC50 (µg/mL) neutralization in experiment [5] is 0.011 µg/mL. Besides, in [6], the neutralization IC50 came to 2.51 µg/mL. In experiment [7], the neutralization IC50 turned out to be 0.149 µg/mL. The substance further registered a neutralization IC50 in experiment [8] of 0.014 µg/mL. In experiment [9], this substance gave a neutralization IC50 of 3.37 µg/mL. In addition, the IC50, pseudovirus neutralization in experiment [10] is 0.014 µg/mL. In experiment [11], this substance displayed an IC50 (ug/ml), neutralizing activity of 0.104 µg/mL; an IC50, pseudovirus neutralization of 0.104 µg/mL; an IC80, pseudovirus neutralization of 1.28 µg/mL; an IC90 (pseudovirus neutralization) of 6.38 µg/mL. Besides, the IC95, pseudovirus neutralization in [11] was greater than 10 µg/mL.

As for 4877_D15 (PGT-122) (antibody), the IC50 (µg/mL) neutralization in experiment [5] amounted to 0.016 µg/mL. The neutralization IC50 in [6] came to 14.5 µg/mL; in experiment [7], 33.9 µg/mL; in [8], 0.028 µg/mL; in [9], 0.521 µg/mL. In addition, the IC50, pseudovirus neutralization in experiment [10] came out at 0.026 µg/mL. Also, in experiment [11], the IC50 (ug/ml), neutralizing activity is greater than 10 µg/mL.

5123_A06 (PGT-125) (antibody) had an IC50 (µg/mL) neutralization in experiment [5] of 37.5 µg/mL. The substance further showed a neutralization IC50 in experiment [6] greater than 50 µg/mL. The neutralization IC50 in experiment [7] is greater than 50 µg/mL. Moreover, the neutralization IC50 in experiment [8] was found to be 0.008 µg/mL. In experiment [9], this substance yielded a neutralization IC50 of 0.004 µg/mL. This substance also returned an IC50, pseudovirus neutralization in [10] of 0.009 µg/mL. In experiment [11], this substance showed an IC50 (ug/ml), neutralizing activity greater than 10 µg/mL; a neutralization IC50 greater than 10 µg/mL; a neutralization IC80 greater than 10 µg/mL; a neutralization IC90 greater than 10 µg/mL. This substance showed a neutralization IC95 in [11] greater than 10 µg/mL.

In experiment [5], 5141_B17 (PGT-126) (antibody) had an IC50 (µg/mL) neutralization of 9.44 µg/mL. Further, the neutralization IC50 in [6] was greater than 50 µg/mL; in [7] it was 1.21 µg/mL; in [8] it was 0.01 µg/mL; in [9], 0.008 µg/mL. In [10], this substance gave an IC50, pseudovirus neutralization of 0.014 µg/mL. For the same substance, in experiment [11], the IC50 (ug/ml), neutralizing activity was 1.35 µg/mL.

The substance 5145_B14 (PGT-127) (antibody) registered an IC50 (µg/mL) neutralization in [5] of 6.95 µg/mL. In addition, the neutralization IC50 in experiment [6] was greater than 50 µg/mL; in experiment [7], greater than 50 µg/mL; in experiment [8] it was 0.021 µg/mL; in experiment [9] it was 0.018 µg/mL. Further, the IC50, pseudovirus neutralization in [10] was 0.029 µg/mL.

In [11], 5147_N06 (PGT-130) (antibody) displayed an IC50 (ug/ml), neutralizing activity of 0.947 µg/mL.

With PGT-141 (4964_G22; 4993_K13) (antibody), the IC50 (ug/ml), pseudovirus neutralization in experiment [12] is greater than 10 µg/mL; in [13], greater than 10 µg/mL; in experiment [14] it was 0.0016 µg/mL; in experiment [15], greater than 10 µg/mL; in experiment [16] it was greater than 10 µg/mL; in experiment [17] it was greater than 10 µg/mL. The IC50 (ug/ml), pseudovirus neutralization in experiment [18], in experiment [19], in experiment [20] and in experiment [27] was greater than 10 µg/mL in each case. The IC50, pseudovirus neutralization in [21] is 4.02 µg/mL; in experiment [22], 1.34 µg/mL; in [23], 0.381 µg/mL; in experiment [24], 0.153 µg/mL; in experiment [25], 0.101 µg/mL; in experiment [26], greater than 50 µg/mL.

Consider PGT-142 (4995_E20) (antibody), for which the IC50 (ug/ml), pseudovirus neutralization in [12] was greater than 10 µg/mL; in [13], greater than 10 µg/mL; in experiment [14], 0.0017 µg/mL; in experiment [15], greater than 10 µg/mL; in experiment [16], greater than 10 µg/mL; in [17] it was greater than 10 µg/mL. Besides, the IC50 (ug/ml), pseudovirus neutralization in experiment [18], in [19], in experiment [20] and in experiment [27] was greater than 10 µg/mL throughout. Besides, the IC50, pseudovirus neutralization in experiment [21] is 1.11 µg/mL; in experiment [22], 0.446 µg/mL; in experiment [23] it was 0.086 µg/mL; in experiment [24], 0.087 µg/mL; in experiment [25], 0.03 µg/mL; in [26], greater than 50 µg/mL.

With PGT-143 (4980_N08) (antibody), the IC50 (ug/ml), pseudovirus neutralization in [12] was greater than 10 µg/mL; in [13], greater than 10 µg/mL; in [14], 0.0021 µg/mL; in experiment [15], greater than 10 µg/mL; in experiment [16], greater than 10 µg/mL; in [17], greater than 10 µg/mL. In addition, the IC50 (ug/ml), pseudovirus neutralization in experiment [18], in [19], in experiment [20] and in experiment [27] was greater than 10 µg/mL in each case. The IC50, pseudovirus neutralization in experiment [21] was 5.17 µg/mL; in experiment [22], 0.797 µg/mL; in experiment [23], 0.103 µg/mL; in [24], 0.148 µg/mL; in experiment [25] it was 0.05 µg/mL; in experiment [26], greater than 50 µg/mL.

Take PGT-144 (4970_K22) (antibody): the IC50 (ug/ml), pseudovirus neutralization in [12] was greater than 10 µg/mL; in [13], greater than 10 µg/mL; in [14] it was 0.158 µg/mL; in [15], greater than 10 µg/mL; in experiment [16], greater than 10 µg/mL; in [17], greater than 10 µg/mL. Also, the IC50 (ug/ml), pseudovirus neutralization in experiment [18], in [19], in experiment [20] and in experiment [27] was greater than 10 µg/mL each time. In addition, the IC50, pseudovirus neutralization in experiment [21] was 23 µg/mL; in experiment [22], 1.29 µg/mL; in experiment [23], 2.58 µg/mL; in [24] it was 0.38 µg/mL; in experiment [25] it was 2.06 µg/mL; in [26] it was greater than 50 µg/mL.

Turning to VRC01 (antibody), the IC50, pseudovirus neutralization in [28] came out at 0.435 µg/mL; in experiment [29], 0.305 µg/mL; in [30], 2.86 µg/mL; in experiment [31], 0.097 µg/mL; in [32] it was 0.488 µg/mL; in experiment [21] it was 0.366 µg/mL. Also, the IC50, pseudovirus neutralization in [22] was determined as 0.396 µg/mL; in experiment [23], 13 µg/mL; in experiment [24], 0.077 µg/mL; in experiment [25] it was 3.4 µg/mL; in experiment [26], 0.707 µg/mL.

b12 (antibody): the IC90 (pseudovirus neutralization) in experiment [1] is greater than 50 µg/mL.
